Measurements from article PMC6941110, “Mutation of Aspartate 238 in FAD Synthase Isoform 6 Increases the Specific Activity by Weakening the FAD Binding” (International Journal of Molecular Sciences, 2019).

Assays:
Test in all cases: purified protein
Format in all cases: biochemical, Homo sapiens
[1] = system: T1, Nc1ncnc2c1ncn2[C@@H]1O[C@H](COP(=O)(O)OP(=O)(O)OP(=O)(O)O)[C@@H](O)[C@H]1O; conditions: forward reaction, 5 mM MgCl2, 50 mM Tris/HCl pH 7.5, 37 °C
T1 construct: 320-residue isoform 6, FADSy domain only, lacks N-terminal FADHy domain; monomer

O=P(O)(O)OP(=O)(O)O = system: T2, O=P(O)(O)OP(=O)(O)O; conditions: reverse reaction, 0.5 µM FAD, 5 mM MgCl2, 50 mM Tris/HCl pH 7.5, 37 °C
T2 construct: 320-residue isoform 6, FADSy domain only, lacks N-terminal FADHy domain; monomer

[2] = system: T3, Cc1cc2nc3c(=O)[nH]c(=O)nc-3n(C[C@H](O)[C@H](O)[C@H](O)COP(=O)(O)O)c2cc1C; conditions: forward reaction, 100 µM ATP, 5 mM MgCl2, 50 mM Tris/HCl pH 7.5, 37 °C
T3 construct: 320-residue isoform 6, FADSy domain only, lacks N-terminal FADHy domain; monomer

Chain of hFADS6 (human FAD synthase isoform 6) (Homo sapiens; D505A) (chain, as listed by the source D505A): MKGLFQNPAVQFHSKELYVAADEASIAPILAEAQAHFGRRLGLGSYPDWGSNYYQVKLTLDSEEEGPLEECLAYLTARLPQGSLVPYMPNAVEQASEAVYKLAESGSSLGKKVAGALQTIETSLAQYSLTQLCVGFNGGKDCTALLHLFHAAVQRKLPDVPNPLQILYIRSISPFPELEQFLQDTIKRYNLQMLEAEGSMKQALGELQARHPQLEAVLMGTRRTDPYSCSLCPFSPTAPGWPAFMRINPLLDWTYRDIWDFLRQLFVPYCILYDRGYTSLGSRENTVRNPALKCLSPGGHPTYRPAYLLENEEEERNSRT
Chain of hFADS6 (human FAD synthase isoform 6) (Homo sapiens) (chain, as listed by the source): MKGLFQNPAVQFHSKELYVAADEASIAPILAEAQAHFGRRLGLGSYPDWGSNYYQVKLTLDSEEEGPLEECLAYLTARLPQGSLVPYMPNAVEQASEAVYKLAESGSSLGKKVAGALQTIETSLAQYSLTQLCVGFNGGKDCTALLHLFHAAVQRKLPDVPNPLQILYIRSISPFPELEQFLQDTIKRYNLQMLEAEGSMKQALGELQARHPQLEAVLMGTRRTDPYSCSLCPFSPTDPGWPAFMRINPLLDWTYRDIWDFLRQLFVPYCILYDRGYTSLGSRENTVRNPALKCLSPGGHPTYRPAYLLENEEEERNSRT

Row | Substance | Km ([1]; 2 µM FMN) [µM] | kcat ([1]; 2 µM FMN) [s⁻¹] | Km (O=P(O)(O)OP(=O)(O)O) [µM] | Km [2] [µM] | kcat [2] [s⁻¹] | Km ([1]; 3 µM FMN) [µM] | kcat ([1]; 3 µM FMN) [s⁻¹]
1 | hFADS6 (human FAD synthase isoform 6) (Homo sapiens) | 6.9 ± 0.5 | 0.050 ± 0.001 | 42 ± 6 | 0.13 ± 0.01 | 0.047 ± 0.001 |  | 
2 | hFADS6 (human FAD synthase isoform 6) (Homo sapiens; D505A) |  |  | 60 ± 8 | 1.3 ± 0.3 | 0.103 ± 0.007 | 44 ± 4 | 0.093 ± 0.003
